The values below come from article PMC10216065.

The target of the assay is T1, E. coli SufE (E. coli), P76194.
T1 chain: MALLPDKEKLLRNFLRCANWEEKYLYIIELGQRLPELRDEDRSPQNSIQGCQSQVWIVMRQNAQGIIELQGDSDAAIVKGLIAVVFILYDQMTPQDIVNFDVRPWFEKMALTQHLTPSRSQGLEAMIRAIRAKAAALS
The assay is described as follows: cross-linking; disulfide-linked species after treatment with 1 mM H2O2; SDS-PAGE under reducing (+DTT) and non-reducing (-DTT) conditions. To be noted: remark: other sources report otherwise.

B1: E. coli SufE, P76194 1-138 (natural protein)
chain: MALLPDKEKLLRNFLRCANWEEKYLYIIELGQRLPELRDEDRSPQNSIQGCQSQVWIVMRQNAQGIIELQGDSDAAIVKGLIAVVFILYDQMTPQDIVNFDVRPWFEKMALTQHLTPSRSQGLEAMIRAIRAKAAALS
For the molecule B1, the percent of total SufE as disulfide-bonded homodimer is 34%.
